Test [1] addresses IgG1 heavy chain with CH3 construct 72 (L351D, R355D) (human) [IgG part: P01857]. The experiment in a line: native MS; combination 8 co-expressed (A: VH MF1337, B: VH MF1122).
Test [2] shares this target. The experiment in a line: SDS-PAGE of protein A-purified supernatant; construct expressed alone.

Here are results for 1 substance from patent US20150139996A1.

With “IgG1 heavy chain with CH3 construct 72 (L351D, R355D) (from UniProt P01857-1)”, in test [1], the % BB found is 8%. Besides, in test [2], the % IgG came to 100%.
